From patent US20080181887A1 (published 2008)

Legend:
human FcRn [1] = target: T1, human FcRn (human); test: BIAcore SPR, equilibrium binding with Scatchard analysis, soluble human FcRn over immobilized IgG1, pH 6.0
T1 construct: mature; Soluble heterodimer from baculovirus-infected High-Five cells, purified on IgG Sepharose; also called recombinant human FcRn; the human receptor

murine FcRn [2] = target: T2, murine FcRn (murine, UniProt P01887 21-119, limits assumed); test: BIAcore SPR, equilibrium binding with Scatchard analysis, soluble murine FcRn over immobilized IgG1, pH 6.0
T2 construct: the whole entry is named; also called mouse FcRn; muFcRn
T2 sequence: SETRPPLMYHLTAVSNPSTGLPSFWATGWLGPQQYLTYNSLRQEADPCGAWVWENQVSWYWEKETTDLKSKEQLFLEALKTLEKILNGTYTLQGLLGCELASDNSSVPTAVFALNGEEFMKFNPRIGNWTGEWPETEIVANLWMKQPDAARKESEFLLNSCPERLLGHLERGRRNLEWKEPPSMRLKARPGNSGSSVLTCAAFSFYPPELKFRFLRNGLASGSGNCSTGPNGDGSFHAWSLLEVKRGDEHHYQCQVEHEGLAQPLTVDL
T2 sequence (b2m): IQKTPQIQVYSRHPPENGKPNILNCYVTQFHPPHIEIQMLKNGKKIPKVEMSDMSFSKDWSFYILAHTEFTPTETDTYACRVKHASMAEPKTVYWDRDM

murine FcRn [3] = target: T2, murine FcRn; test: BIAcore SPR, Scatchard analysis of FIG. 7A, murine FcRn 1 nM to 556 nM over 4000 RU of immobilized IgG1
human FcRn [4] = target: T1, human FcRn; test: BIAcore SPR, soluble human FcRn over immobilized IgG1, pH 6.0
murine FcRn [5] = target: T2, murine FcRn; test: BIAcore SPR, soluble murine FcRn over immobilized IgG1, pH 6.0

T1 sequence (chain, as listed by the source limits assumed, chain 1 of 2): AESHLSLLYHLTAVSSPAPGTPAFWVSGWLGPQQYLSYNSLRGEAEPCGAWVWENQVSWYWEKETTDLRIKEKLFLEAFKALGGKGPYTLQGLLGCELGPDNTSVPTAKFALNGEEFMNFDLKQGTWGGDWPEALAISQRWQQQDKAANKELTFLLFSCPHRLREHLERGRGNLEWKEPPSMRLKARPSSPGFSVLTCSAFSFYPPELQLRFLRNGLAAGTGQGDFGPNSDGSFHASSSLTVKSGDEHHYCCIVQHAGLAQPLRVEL
T1 sequence (P61769 21-119 limits assumed, chain 2 of 2): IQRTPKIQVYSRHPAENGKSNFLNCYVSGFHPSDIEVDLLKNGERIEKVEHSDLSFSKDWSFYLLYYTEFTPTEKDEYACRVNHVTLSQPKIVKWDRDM

B1: human IgG1 MEDI-493 (SYNAGIS) G385R/Q386T/P387R/N389P (antibody)
heavy (part 1 of 2): QVTLRESGPALVKPTQTLTLTCTFSGFSLSTSGMSVGWIRQPPGKALEWLADIWWDDKKDYNPSLKSRLTISKDTSKNQVVLKVTNMDPADTATYYCARSMITNWYFDVWGAGTTVTVSS
heavy (part 2 of 2): EPKSCDKTHTCPPCPAPELLGGPSVFLFPPKPKDTLMISRTPEVTCVVVDVSHEDPEVKFNWYVDGVEVHNAKTKPREEQYNSTYRVVSVLTVLHQDWLNGKEYKCKVSNKALPAPIEKTISKAKGQPREPQVYTLPPSREEMTKNQVSLTCLVKGFYPSDIAVEWESNRTREPNYKTTPPVLDSDGSFFLYSKLTVDKSRWQQGNVFSCSVMHEALHNHYTQKSLSLSPGK
light: DIQMTQSPSTLSASVGDRVTITCKCQLSVGYMHWYQQKPGKAPKLLIYDTSKLASGVPSRFSGSGSGTEFTLTISSLQPDDFATYYCFQGSGYPFTFGGGTKLEIK
notes: HEK 293, protein A purified; not shown: human IgG1 heavy chain CH1 domain (between VH and hinge-Fc); human kappa light chain constant domain
In the case of B1, the “ΔΔG (ΔG wild type - ΔG mutant)” value (human FcRn [1]) is reported as 0.3 kcal/mol.

B2: human IgG1 MEDI-493 (SYNAGIS) H433K/N434F/Y436H (antibody)
heavy (part 1 of 2): QVTLRESGPALVKPTQTLTLTCTFSGFSLSTSGMSVGWIRQPPGKALEWLADIWWDDKKDYNPSLKSRLTISKDTSKNQVVLKVTNMDPADTATYYCARSMITNWYFDVWGAGTTVTVSS
heavy (part 2 of 2): EPKSCDKTHTCPPCPAPELLGGPSVFLFPPKPKDTLMISRTPEVTCVVVDVSHEDPEVKFNWYVDGVEVHNAKTKPREEQYNSTYRVVSVLTVLHQDWLNGKEYKCKVSNKALPAPIEKTISKAKGQPREPQVYTLPPSREEMTKNQVSLTCLVKGFYPSDIAVEWESNGQPENNYKTTPPVLDSDGSFFLYSKLTVDKSRWQQGNVFSCSVMHEALKFHHTQKSLSLSPGK
light: DIQMTQSPSTLSASVGDRVTITCKCQLSVGYMHWYQQKPGKAPKLLIYDTSKLASGVPSRFSGSGSGTEFTLTISSLQPDDFATYYCFQGSGYPFTFGGGTKLEIK
notes: as for B1
For B2, the “ΔΔG (ΔG wild type - ΔG mutant)” value (human FcRn [1]) was 1.1 kcal/mol, the Kd (murine FcRn [2]) was 14 nM and the “ΔΔG (ΔG wild type - ΔG mutant)” value (murine FcRn [2]) was 1.8 kcal/mol.

B3: human IgG1 MEDI-493 (SYNAGIS) M252Y/S254T/T256E (antibody)
heavy (part 1 of 2): QVTLRESGPALVKPTQTLTLTCTFSGFSLSTSGMSVGWIRQPPGKALEWLADIWWDDKKDYNPSLKSRLTISKDTSKNQVVLKVTNMDPADTATYYCARSMITNWYFDVWGAGTTVTVSS
heavy (part 2 of 2): EPKSCDKTHTCPPCPAPELLGGPSVFLFPPKPKDTLYITREPEVTCVVVDVSHEDPEVKFNWYVDGVEVHNAKTKPREEQYNSTYRVVSVLTVLHQDWLNGKEYKCKVSNKALPAPIEKTISKAKGQPREPQVYTLPPSREEMTKNQVSLTCLVKGFYPSDIAVEWESNGQPENNYKTTPPVLDSDGSFFLYSKLTVDKSRWQQGNVFSCSVMHEALHNHYTQKSLSLSPGK
light: DIQMTQSPSTLSASVGDRVTITCKCQLSVGYMHWYQQKPGKAPKLLIYDTSKLASGVPSRFSGSGSGTEFTLTISSLQPDDFATYYCFQGSGYPFTFGGGTKLEIK
notes: HEK 293, protein A purified; also called IgG1/M252Y/S254T/T256E; not shown: human IgG1 heavy chain CH1 domain (between VH and hinge-Fc); human kappa light chain constant domain
B3 was tested, and the Kd (murine FcRn [3]) was 24 nM, the “ΔΔG (ΔG wild type - ΔG mutant)” value (human FcRn [1]) was 1.4 kcal/mol and the Kd (murine FcRn [2]) was 27 nM. For the same binder, the “ΔΔG (ΔG wild type - ΔG mutant)” value (murine FcRn [2]) was 1.4 kcal/mol.

B4: human IgG1 MEDI-493 (SYNAGIS) M252Y/T256Q (antibody)
heavy (part 1 of 2): QVTLRESGPALVKPTQTLTLTCTFSGFSLSTSGMSVGWIRQPPGKALEWLADIWWDDKKDYNPSLKSRLTISKDTSKNQVVLKVTNMDPADTATYYCARSMITNWYFDVWGAGTTVTVSS
heavy (part 2 of 2): not shown
light: DIQMTQSPSTLSASVGDRVTITCKCQLSVGYMHWYQQKPGKAPKLLIYDTSKLASGVPSRFSGSGSGTEFTLTISSLQPDDFATYYCFQGSGYPFTFGGGTKLEIK
notes: as for B1
In the case of B4, the “ΔΔG (ΔG wild type - ΔG mutant)” value (human FcRn [1]) is reported as 0.9 kcal/mol.

B5: human IgG1 MEDI-493 (SYNAGIS) N434F/Y436H (antibody)
heavy (part 1 of 2): QVTLRESGPALVKPTQTLTLTCTFSGFSLSTSGMSVGWIRQPPGKALEWLADIWWDDKKDYNPSLKSRLTISKDTSKNQVVLKVTNMDPADTATYYCARSMITNWYFDVWGAGTTVTVSS
heavy (part 2 of 2): not shown
light: DIQMTQSPSTLSASVGDRVTITCKCQLSVGYMHWYQQKPGKAPKLLIYDTSKLASGVPSRFSGSGSGTEFTLTISSLQPDDFATYYCFQGSGYPFTFGGGTKLEIK
notes: as for B1
With B5 the “ΔΔG (ΔG wild type - ΔG mutant)” value (human FcRn [1]) was 1 kcal/mol, the Kd (murine FcRn [2]) was 9 nM and the “ΔΔG (ΔG wild type - ΔG mutant)” value (murine FcRn [2]) was 2 kcal/mol.

B6: human IgG1 MEDI-493 (SYNAGIS) M252W (antibody)
heavy (part 1 of 2): QVTLRESGPALVKPTQTLTLTCTFSGFSLSTSGMSVGWIRQPPGKALEWLADIWWDDKKDYNPSLKSRLTISKDTSKNQVVLKVTNMDPADTATYYCARSMITNWYFDVWGAGTTVTVSS
heavy (part 2 of 2): not shown
light: DIQMTQSPSTLSASVGDRVTITCKCQLSVGYMHWYQQKPGKAPKLLIYDTSKLASGVPSRFSGSGSGTEFTLTISSLQPDDFATYYCFQGSGYPFTFGGGTKLEIK
notes: as for B1
For B6, the “ΔΔG (ΔG wild type - ΔG mutant)” value (human FcRn [1]) was 1.1 kcal/mol, the Kd (murine FcRn [2]) was 30 nM and the “ΔΔG (ΔG wild type - ΔG mutant)” value (murine FcRn [2]) was 1.3 kcal/mol.

B7: human IgG1 MEDI-493 (SYNAGIS) I253A (antibody)
heavy (part 1 of 2): QVTLRESGPALVKPTQTLTLTCTFSGFSLSTSGMSVGWIRQPPGKALEWLADIWWDDKKDYNPSLKSRLTISKDTSKNQVVLKVTNMDPADTATYYCARSMITNWYFDVWGAGTTVTVSS
heavy (part 2 of 2): not shown
light: DIQMTQSPSTLSASVGDRVTITCKCQLSVGYMHWYQQKPGKAPKLLIYDTSKLASGVPSRFSGSGSGTEFTLTISSLQPDDFATYYCFQGSGYPFTFGGGTKLEIK
notes: HEK 293, protein A purified; also called 1253A; not shown: human IgG1 heavy chain CH1 domain (between VH and hinge-Fc); human kappa light chain constant domain
B7: no binding (tested: FcRn 1 to 120 µg/ml) (human FcRn [4]); no binding (tested: FcRn 1 to 120 µg/ml) (murine FcRn [5]).
